T1: GST-tagged FBP1 (UniProt P09467 1-338)
T1 construct: fructose-1,6-bisphosphatase 1 (FBP1); also called GST-FBP1; source: E. coli BL21 (DE3), purified
T1 sequence (looked up): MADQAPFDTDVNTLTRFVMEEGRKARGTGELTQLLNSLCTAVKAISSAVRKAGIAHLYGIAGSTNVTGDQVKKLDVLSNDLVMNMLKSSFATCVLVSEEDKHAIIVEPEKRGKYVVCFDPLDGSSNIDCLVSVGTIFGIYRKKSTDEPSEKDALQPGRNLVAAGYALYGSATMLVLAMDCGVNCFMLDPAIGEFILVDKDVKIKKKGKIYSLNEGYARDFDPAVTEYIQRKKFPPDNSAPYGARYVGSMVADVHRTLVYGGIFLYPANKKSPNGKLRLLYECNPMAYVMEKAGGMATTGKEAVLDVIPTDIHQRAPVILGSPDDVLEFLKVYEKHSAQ


Columns and labels:
GST-tagged FBP1 = target: T1, GST-tagged FBP1; assay: pull-down; GST pull-down: purified GST-tagged protein (or GST) mixed with His-tagged protein, both expressed in E. coli BL21 (DE3); conditions: both partners purified
GST-tagged p65 = target: T2, GST-tagged p65 (UniProt Q04206 1-551); assay: as above; conditions: both partners purified
T2 construct: NF-κB p65 (RelA); also called GST-p65; source: E. coli BL21 (DE3), purified
T2 sequence (Q04206 whole entry): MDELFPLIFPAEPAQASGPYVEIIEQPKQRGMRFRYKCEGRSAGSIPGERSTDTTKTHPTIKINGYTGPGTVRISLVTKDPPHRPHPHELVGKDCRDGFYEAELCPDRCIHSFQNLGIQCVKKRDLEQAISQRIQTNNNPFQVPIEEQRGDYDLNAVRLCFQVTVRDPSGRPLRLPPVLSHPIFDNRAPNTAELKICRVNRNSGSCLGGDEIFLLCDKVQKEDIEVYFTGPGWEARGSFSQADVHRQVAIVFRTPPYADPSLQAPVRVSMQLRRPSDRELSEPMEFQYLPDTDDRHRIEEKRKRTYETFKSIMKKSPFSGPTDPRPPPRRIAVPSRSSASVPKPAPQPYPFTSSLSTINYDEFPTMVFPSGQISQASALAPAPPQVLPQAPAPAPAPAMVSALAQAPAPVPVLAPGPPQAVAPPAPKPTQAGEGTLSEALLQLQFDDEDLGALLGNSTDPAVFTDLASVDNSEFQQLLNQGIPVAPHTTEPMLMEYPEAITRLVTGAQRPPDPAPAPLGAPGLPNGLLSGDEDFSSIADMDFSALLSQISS

binding result (GST-tagged FBP1)	binding result (GST-tagged p65)	Binder
binds	–	His-tagged PIM2 (enzyme, serine/threonine kinase PIM2; also called His-PIM2; source: E. coli BL21 (DE3), purified) not shown
–	binds	His-tagged FBP1 (enzyme, UniProt P09467 1-338, looked up, fructose-1,6-bisphosphatase 1 (FBP1); also called His-FBP1; source: E. coli BL21 (DE3)) MADQAPFDTDVNTLTRFVMEEGRKARGTGELTQLLNSLCTAVKAISSAVRKAGIAHLYGIAGSTNVTGDQVKKLDVLSNDLVMNMLKSSFATCVLVSEEDKHAIIVEPEKRGKYVVCFDPLDGSSNIDCLVSVGTIFGIYRKKSTDEPSEKDALQPGRNLVAAGYALYGSATMLVLAMDCGVNCFMLDPAIGEFILVDKDVKIKKKGKIYSLNEGYARDFDPAVTEYIQRKKFPPDNSAPYGARYVGSMVADVHRTLVYGGIFLYPANKKSPNGKLRLLYECNPMAYVMEKAGGMATTGKEAVLDVIPTDIHQRAPVILGSPDDVLEFLKVYEKHSAQ

From PMC7392005, “Fructose-1, 6-bisphosphatase 1 interacts with NF-κB p65 to regulate breast tumorigenesis via PIM2 induced phosphorylation” (Theranostics, 2020)
